Data taken from patent publication US5770384, “Method for determining compound interaction with E2 binding proteins” (New England Medical Center Hospitals, Inc, dated 1998).

Target: BPV-1 E2 protein, wild type, full length (amino acids 1 to 410) (bovine papillomavirus (BPV-1), UniProt P03122)
Experiment: alternative two hybrid assay in yeast, LexA/LacZ reporter pSH18-34, GAL/XGAL plate

B1: LexA DBD alone (YEplac181GLexA202) (other)
chain: MKALTARQQEVFDLIRDHISQTGMPPTRAEIAQRLGFRSPNAAEEHLKALARKGVIEIVSGASRGIRLLQEEEEGLPLVGRVAAGEPLLAQQHIEGHYQVDPSLFKPNADFLLRVSGMSMKDIGIMDGDLLAVHKTQDVRNGQVVVARIDDEVTVKRLKKQGNKVELLPENSEFKPIVVDLRQQSFTIEGLAVGVIRNGDWL
B1: no binding.
